# Square brackets hold non-standard residues; d marks the D form. Ends that are not written are not given here. pY = N[C@@H](Cc1ccc(OP(=O)(O)O)cc1)C(=O)O
# B1: ND2.1-GST: GST fusion protein containing amino acids 239-321 of human ND2 (SEQ ID NO:7) (protein)
# chain: WLTPLIPSTLLSLGGLPPLTGFLPKWTIIEEFTKNNSLIIPTIMATITLLNLYFYLRLIYSTSITLLPMSNNVKMKWQFE
# modifications: left off: a dimerising Fc or GST
# B2: ND2.3-GST: GST fusion protein containing amino acids 1-188 of human ND2 (SEQ ID NO:13) (protein)
# chain: MNPLAQPVIYSTIFAGTLITALSSHWFFTWVGLEMNMLAFIPVLTKKMNPRSTEAAIKYFLTQATASMILLMAILFNNMLSGQWTMTNTTNQYSSLMIMMAMAMKLGMAPFHFWVPEVTQGTPLTSGLLLLTWQKLAPISIMYQISPSLNVSLLLTLSILSIMAGSWGGLNQTQLRKILAYSSITHMG
# modifications: left off: a dimerising Fc or GST
# Experiments:
# NMDAR = test: mEPSC whole cell recordings in cultured hippocampal neurons, NMDAR component; type: cell-based, rat
# Experimental: (§1) Fetal rat hippocampal neurons were prepared, cultured, and used for electrophysiological recordings 12-17 days after plating. Methods for whole cell recordings are described in Pelkey et al. (Neuron 34:127-138 2002).
# (§2) In contrast, in control experiments administering EPQ(pY)EEIPIA (SEQ ID NO:5) increased the NMDAR component of mEPSCs by 172±28% and application of Src40-58 decreased the NMDAR component to 56±4% (FIGS. 5D-F). […] Composite traces are shown in black, the NMDAR component in dark grey, and the AMPAR component in light grey. Scale bars are 50 ms/10 pA. […] NMDA component data were calculated as Q20′/Q2′, and AMPA component data were calculated as A20′/A2′. […] An * indicates a significant difference, Student's t-test, p<0.05. Taking our results together, it is concluded that Src-dependent regulation of the activity of NMDARs depends on expression of ND2 through its anchoring of Src to the NMDAR complex.
# AMPA receptor = test: mEPSC whole cell recordings in cultured hippocampal neurons, AMPA receptor component; type: cell-based, rat; conditions: under the recording conditions used
# Experimental: as §1, §2
# Src unique domain = target: T1, Src unique domain (Mus musculus, UniProt P05480); test: blot of ND2-GST fusion proteins probed with biotinylated Src unique domain; type: binding; conditions: GST fusion protein
# T1 construct: amino acids 4-82 (the Src unique domain); GST (N); made in house; host or cells: BL21 bacteria
# Experimental: (§3) Src, Fyn, and ND2 recombinant proteins were prepared. The cDNAs encoding the SH3 and SH2 domains of mouse n-Src and Fyn were PCR subcloned, ligated in frame into pGEX4T-1 (Amersham Pharmacia Biotech, Baie d'Urfé, Québec), and sequenced. These plasmids, as well as plasmids encoding the unique domains of Src and Fyn in pGEX2T'6, were transformed into BL21 bacteria, and GST fusion proteins were purified by glutathione affinity chromatography. To create the ND2.1, ND2.2, and ND2.3 GST fusion proteins, cDNAs encoding amino acids 239-321 (ND2.1-GST; SEQ ID NO:7), amino acids 189-238 (ND2.2-GST; SEQ ID NO:11), and amino acids 1-188 (ND2.3-GST; SEQ ID NO:13) of human ND2 were PCR subcloned and ligated into pGEX4T-1 (the nucleotide sequence encoding ND2 is SEQ ID NO:8 and the amino acid sequence is SEQ ID NO:9; the nucleotide sequences encoding ND2.1; ND2.2 and ND2.3 are SEQ ID NOS:6, 10 and 12, respectively). Using PCR-based single nucleotide mutagenesis, all cDNAs encoding ND2 fusion proteins were corrected for differences between mitochondrial and nuclear codons to prevent premature translation termination and protein truncation. All constructs were then confirmed by sequencing. The plasmids were transformed into bacteria, and GST fusion proteins were purified by glutathione affinity chromatography.
# (§4) Detailed protocols for in vitro binding assays, pull down assays, immunoblotting, and co-immunoprecipitation techniques can be found in Pelkey et al. (Neuron 34:127-138 2002).
# As yeast two-hybrid screening may reveal false positive protein-protein interactions, the interaction between Src and ND2 was observed using an independent methodological approach. Direct binding in vitro between ND2 and Src was tested using recombinant proteins. A series of GST fusion proteins comprised of portions of ND2 that spanned the overlapping region found with the yeast two-hybrid screen were made (FIG. 1A). […]
# ND2.1-GST = target: T2, ND2.1-GST (Homo sapiens, UniProt P03891, A265T); test: in vitro binding of biotinylated Src peptides to ND2.1-GST (blot / dot blot); conditions: biotinylated peptide, streptavidin-HRP detection
# T2 construct: made in house; host or cells: bacteria
# Experimental: as §3
# Src40-58 and scrambled Src peptides were biotinylated by incubating with Sulfo-NHS-Biotin (Pierce Chemical Co., Rockford, Ill.) for 30 minutes at room temperature (SEQ ID NO:4, Src protein). […] Bound probe was then detected on film using an ECL kit.
# To detect the binding of ND2.1-GST with Src peptides, the ND2.1-GST fusion protein was purified on glutathione SEPHAROSE. […] Bound probe was then detected on film using an ECL kit (Amersham Pharmacia Biotech, Baie d'Urfé, Québec).
# Src40-58, Src40-49, Src49-58, scrambled Src40-58, TAT-Src40-49, and scrambled TAT-Src40-49 peptides were biotinylated by incubating with Sulfo-NHS-Biotin (Pierce Chemical Co., Rockford, Ill.) for 30 minutes at room temperature. […] Bound probe was then detected on film using an ECL kit.
# [1] = target: T3, association of Src with the NMDAR complexes (Rattus norvegicus, UniProt P11662); test: co-immunoprecipitation of Src with NMDARs from PSD proteins; type: binding
# T3 construct: from tissue; host or cells: rat brain post-synaptic density fraction
# T3 sequence (P11662 whole entry, other chains not shown): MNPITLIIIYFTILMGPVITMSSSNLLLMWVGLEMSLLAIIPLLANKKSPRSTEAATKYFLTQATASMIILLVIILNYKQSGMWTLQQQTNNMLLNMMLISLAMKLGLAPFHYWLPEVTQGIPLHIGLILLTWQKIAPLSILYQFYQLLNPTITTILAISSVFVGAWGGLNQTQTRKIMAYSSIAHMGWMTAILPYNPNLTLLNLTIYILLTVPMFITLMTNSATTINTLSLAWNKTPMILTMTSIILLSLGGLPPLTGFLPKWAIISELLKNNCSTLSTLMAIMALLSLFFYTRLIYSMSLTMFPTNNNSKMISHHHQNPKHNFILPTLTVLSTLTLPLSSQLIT
# Experimental: as §4
# (§5) Post-synaptic density proteins (Kennedy et al. Proceedings of the National Academy of Science USA 80:7357-7361 1983) were prepared from rat brain as described in detail (Pelkey et al. Neuron 34:127-138 2002). Cellular fractionation of rat brain tissue into nuclear, heavy mitochondrial, light mitochondrial, microsomal, and cytosolic fractions was performed by differential centrifugation of tissue homogenate in 0.25 M sucrose/10 mM HEPES-NaOH, 1 mM EDTA, pH 7.4 with 2 μg each of aprotinin, pepstatin A, and leupeptin (Sigma, St. Louis, Mo.) at 4° C. Nuclei were pelleted by centrifugation at 1 000 g for 10 minutes, the supernatant was removed and spun at 3 000 g for 10 minutes to obtain a heavy mitochondrial pellet. The supernatant was removed and spun at 16 000 g for 15 minutes to obtain a light mitochondrial pellet. The supernatant was removed and spun at 100 000 g for 1 hour to obtain a microsomal pellet and the cytosolic fraction. All pellets were then resuspended in RIPA buffer (50 mM Tris pH 7.6, 150 mM NaCl, 1 mM EDTA, 1% NP-40, 2.5 mg/ml NaDOC, 1 mM Na3VO4 1 mM PMSF, and 2 μg/ml each of protease inhibitors). The light mitochondrial fraction was used in subsequent experiments. […]
# Src [2] = target: Src (Homo sapiens, UniProt P12931); test: catalytic activity of Src in vitro; type: biochemical; conditions: not illustrated
# Description: As ND2 alone is not catalytically active (J. E. Walker Quarterly Reviews of Biophysics 25(3):253-324 1992; Sazanov et al. Journal of Molecular Biology 302:455-464 2000; Sazanove et al. Biochemistry 39:7229-7235 2000), its functional role in the NMDAR complex was investigated. […] Thus, it is unlikely that ND2 is a target of Src or a regulator of Src kinase activity.
# Src [3] = target: T4, Src (Rattus norvegicus, UniProt Q9WUD9); test: pull down of Src from PSD preparations by ND2-GST fusion proteins; type: binding
# T4 construct: from tissue; host or cells: rat brain post-synaptic density fraction
# Experimental: as §4, §5
# [4] = test system: SH2 or SH3 domains of Src; test: blot of ND2.1-GST probed with biotinylated SH2 and SH3 domains of Src; type: binding, mouse
# Experimental: (§6) Src, Fyn, and ND2 recombinant proteins were prepared. The cDNAs encoding the SH3 and SH2 domains of mouse n-Src and Fyn were PCR subcloned, ligated in frame into pGEX4T-1 (Amersham Pharmacia Biotech, Baie d'Urfé, Québec), and sequenced. These plasmids, as well as plasmids encoding the unique domains of Src and Fyn in pGEX2T'6, were transformed into BL21 bacteria, and GST fusion proteins were purified by glutathione affinity chromatography. To create the ND2.1, ND2.2, and ND2.3 GST fusion proteins, cDNAs encoding amino acids 239-321 (ND2.1-GST; SEQ ID NO:7), amino acids 189-238 (ND2.2-GST; SEQ ID NO:11), and amino acids 1-188 (ND2.3-GST; SEQ ID NO:13) of human ND2 were PCR subcloned and ligated into pGEX4T-1 (the nucleotide sequence encoding ND2 is SEQ ID NO:8 and the amino acid sequence is SEQ ID NO:9; the nucleotide sequences encoding ND2.1; ND2.2 and ND2.3 are SEQ ID NOS:6, 10 and 12, respectively). Using PCR-based single nucleotide mutagenesis, all cDNAs encoding ND2 fusion proteins were corrected for differences between mitochondrial and nuclear codons to prevent premature translation termination and protein truncation. All constructs were then confirmed by sequencing. The plasmids were transformed into bacteria, and GST fusion proteins were purified by glutathione affinity chromatography. […]
# Fyn unique domain = target: T5, Fyn unique domain (Mus musculus, UniProt P39688); test: blot of ND2.1-GST probed with biotinylated Fyn unique domain; type: binding
# T5 construct: plasmids encoding the unique domains of Src and Fyn in pGEX2T'6; GST (N); made in house; host or cells: BL21 bacteria
# T5 sequence (P39688 1-81 limits assumed): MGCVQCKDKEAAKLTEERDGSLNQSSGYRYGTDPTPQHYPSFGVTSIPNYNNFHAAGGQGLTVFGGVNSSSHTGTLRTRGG
# Experimental: as §6
molecule,measurement,setting,value
EPQ(pY)EEIPIA (EPQ[pY]EEIPIA),"NMDAR component of mEPSCs, increased by","NMDAR; control experiments, cultured hippocampal neurons",172±28%
same,NMDAR component of the mEPSCs,NMDAR; neurons treated with chloramphenicol for 48 hours,not affected
same,AMPA receptor component of the mEPSCs,AMPA receptor,neither of these reagents affected
ND2.2-GST: GST fusion protein containing amino acids 189-238 of human ND2 (SEQ ID NO:11) (WMMAVLPYNPNMTILNLTIYIILTTTAFLLLNLNSSTTTLLLSRTWNKLT; also: GST fusion protein),binding to the unique domain of Src,Src unique domain,did not bind
"Src40-49: peptide, 10 amino acid residues, corresponding approximately to amino acid positions 40-49 of the Src unique domain (SEQ ID NO:1) (KPASADGHR; listed as Homo sapiens)",binding to ND2.1-GST,ND2.1-GST,interacts with ND2
Src50-58: Src49-58: peptide comprising amino acid residues 49-58 of SEQ ID NO:4; printed Src50-58 in the summary (PSAAFAPAAA; listed as Homo sapiens),binding to ND2.1-GST,ND2.1-GST,did not interact
B1,co-immunoprecipitation of Src with NMDARs,[1],suppressed
same,catalytic activity of Src in vitro,Src [2],did not alter
same,pulls Src from PSD preparations,Src [3],pulls Src
same,binding to the SH2 or SH3 domains of Src,[4],did not bind
same,binding to the unique domain of Src,Src unique domain,bound
same,interaction in vitro with the Fyn unique domain,Fyn unique domain,did not interact
B2,binding to the unique domain of Src,Src unique domain,did not bind
